# Measurements: paper PMC9929448
# Legend:
# Noggin (Homo sapiens) = Noggin (Homo sapiens) (UniProt Q13253); assay: SPR; conditions: cited from earlier work
# [1] = biological target: T1, Bone morphogenetic protein 2 (BMP-2), wild type, mature form (human); assay: SDS-PAGE under reducing and nonreducing conditions; purified, refolded protein on 4 to 20% SDS-PAGE, Coomassie blue; covalent (disulphide) dimer
# T1 sequence (P12643 whole entry, looked up): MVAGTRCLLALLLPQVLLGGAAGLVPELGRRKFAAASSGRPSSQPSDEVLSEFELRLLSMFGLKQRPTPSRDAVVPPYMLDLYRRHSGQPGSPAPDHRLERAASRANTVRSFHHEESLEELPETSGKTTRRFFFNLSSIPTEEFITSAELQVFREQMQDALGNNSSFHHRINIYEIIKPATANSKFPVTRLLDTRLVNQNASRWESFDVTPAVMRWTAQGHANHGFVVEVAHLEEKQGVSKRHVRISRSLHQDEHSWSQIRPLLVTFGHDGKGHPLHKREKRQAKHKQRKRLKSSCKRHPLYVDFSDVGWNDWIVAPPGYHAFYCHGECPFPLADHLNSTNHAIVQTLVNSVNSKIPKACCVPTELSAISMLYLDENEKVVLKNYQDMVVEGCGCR
# [2] = biological target: Noggin (residues 28-232) (human (from the UniProt entry Q13253)) (UniProt Q13253); assay: BLI; biotinylated Noggin (4 ug/mL) immobilised on streptavidin-coated biosensors, BMP-2 1 to 22.8 nM in solution; 30 °C; 50 mM sodium citrate pH 6.8, 150 mM NaCl, 1 mM magnesium acetate, 0.02% CHAPS; 1:1 interaction model; three repetitions
# Noggin (residues 28-232) (human, sequence (Q13253 other isoform, or with tags, fused parts or gaps): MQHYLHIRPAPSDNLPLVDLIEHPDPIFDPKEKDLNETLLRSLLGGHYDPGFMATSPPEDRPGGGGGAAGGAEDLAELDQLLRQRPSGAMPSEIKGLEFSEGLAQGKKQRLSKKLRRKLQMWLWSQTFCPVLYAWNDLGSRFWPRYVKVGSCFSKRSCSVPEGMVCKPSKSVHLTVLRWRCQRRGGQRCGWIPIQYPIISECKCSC
# [3] = biological target: BMP-2 N102D mutant, mature form (human); assay: SDS-PAGE under reducing and nonreducing conditions; purified, refolded protein on 4 to 20% SDS-PAGE, Coomassie blue; covalent (disulphide) dimer
# Noggin (Homo sapiens), sequence (Q13253 28-232): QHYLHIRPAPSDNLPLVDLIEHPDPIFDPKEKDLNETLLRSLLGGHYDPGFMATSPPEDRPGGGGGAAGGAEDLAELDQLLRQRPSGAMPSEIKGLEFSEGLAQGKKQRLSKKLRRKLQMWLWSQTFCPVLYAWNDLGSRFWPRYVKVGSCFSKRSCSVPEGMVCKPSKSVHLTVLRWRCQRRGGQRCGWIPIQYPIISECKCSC
stoichiometry N [1],Kd [2],koff [2],kon [2],stoichiometry N [2],stoichiometry N [3],Substance,Kd (Noggin (Homo sapiens))
,,,,,,BMP-2 (from UniProt P12643),600 pM
2,360 pM,0.00042 s⁻¹,1.2e+06 M⁻¹ s⁻¹,1,,"Bone morphogenetic protein 2 (BMP-2), wild type, mature form (ligand)",
,300 pM,0.0007 s⁻¹,2.3e+06 M⁻¹ s⁻¹,,2,"BMP-2 N102D mutant, mature form (ligand)",
